{"source": "patent US20160361434", "proteins": {"B1": {"name": "Recombinant human transglutaminase 2 (hTG2) (protein)", "chain": "MAEELVLERCDLELETNGRDHHTADLCREKLVVRRGQPFWLTLHFEGRNYEASVDSLTFSVVTGPAPSQEAGTKARFPLRDAVEEGDWTATVVDQQDCTLSLQLTTPANAPIGLYRLSLEASTGYQGSSFVLGHFILLFNAWCPADAVYLDSEEERQEYVLTQQGFIYQGSAKFIKNIPWNFGQFEDGILDICLILLDVNPKFLKNAGRDCSRRSSPVYVGRVVSGMVNCNDDQGVLLGRWDNNYGDGVSPMSWIGSVDILRRWKNHGCQRVKYGQCWVFAAVACTVLRCLGIPTRVVTNYNSAHDQNSNLLIEYFRNEFGEIQGDKSEMIWNFHCWVESWMTRPDLQPGYEGWQALDPTPQEKSEGTYCCGPVPVRAIKEGDLSTKYDAPFVFAEVNADVVDWIQQDDGSVHKSINRSLIVGLKISTKSVGRDEREDITHTYKYPEGSSEEREAFTRANHLNKLAEKEETGMAMRIRVGQSMNMGSDFDVFAHITNNTAEEYVCRLLLCARTVSYNGILGPECGTKYLLNLNLEPFSEKSVPLCILYEKYRDCLTESNLIKVRALLVEPVINSYLLAERDLYLENPEIKIRILGEPKQKRKLVAEVSLQNPLPVALEGCTFTVEGAGLTEEQKTVEIPDPVEAGEEVKVRMDLLPLHMGLHKLVVNFESDKLKAVKGFRNVIIGPA"}, "B2": {"name": "Recombinant microbial transglutaminase (mTG) (protein)", "chain": "DSDDRVTPPAEPLDRMPDPYRPSYGRAETVVNNYIRKWQQVYSHRDGRKQQMTEEQREWLSYGCVGVTWVNSGQYPTNRLAFASFDEDRFKNELKNGRPRSGETRAEFEGRVAKESFDEEKGFQRAREVASVMNRALENAHDESAYLDNLKKELANGNDALRNEDARSPFYSALRNTPSFKERNGGNHDPSRMKAVIYSKHFWSGQDRSSSADKRKYGDPDAFRPAPGTGLVDMSRDRNIPRSPTSPGEGFVNFDYGWFGAQTEADADKTVWTHGNHYHAPNGSLGAMHVYESKFRNWSEGYSDFDRGAYVITFIPKSWNTAPDKVKQGWP"}}, "key": {"CF13Q4": {"biological_target": "T1, CF13Q4", "T1 chain": "CYEQHKLPSSWPF"}, "CS9Q4": {"biological_target": "T2, CS9Q4", "T2 chain": "CYEQHKLPS"}, "CW8Q3": {"biological_target": "T3, CW8Q3", "T3 chain": "CDQMMLPW"}, "DH6N5": {"biological_target": "T4, DH6N5", "T4 chain": "DVYSNH"}, "DH6Q5": {"biological_target": "T5, DH6Q5", "T5 chain": "DVYSQH"}, "FE5Q4": {"biological_target": "T6, FE5Q4", "T6 chain": "FWIQE"}, "FY12Q10": {"biological_target": "T7, FY12Q10", "T7 chain": "FPWSSPLKHQEY"}, "GS12Q7": {"biological_target": "T8, GS12Q7", "T8 chain": "GGSPLAQSHGGS"}, "HG14Q11": {"biological_target": "T9, HG14Q11", "T9 chain": "HDLMWPDVYSQHGG"}, "HH12N11": {"biological_target": "T10, HH12N11", "T10 chain": "HDLMWPDVYSNH"}, "HH12Q11": {"biological_target": "T11, HH12Q11", "T11 chain": "HDLMWPDVYSQH"}, "SY10Q8": {"biological_target": "T12, SY10Q8", "T12 chain": "SPLKHQEY"}, "TGpan": {"biological_target": "T13, TGpan", "T13 chain": "QG"}, "WG10Q7": {"biological_target": "T14, WG10Q7", "T14 chain": "WPDVYSQHGG"}, "YV10": {"biological_target": "T15, YV10", "T15 chain": "YLADTNSLAV"}, "[1]": {"biological_target": "BSA-HH12Q11 conjugate, P02769", "sequence (P02769 25-607)": "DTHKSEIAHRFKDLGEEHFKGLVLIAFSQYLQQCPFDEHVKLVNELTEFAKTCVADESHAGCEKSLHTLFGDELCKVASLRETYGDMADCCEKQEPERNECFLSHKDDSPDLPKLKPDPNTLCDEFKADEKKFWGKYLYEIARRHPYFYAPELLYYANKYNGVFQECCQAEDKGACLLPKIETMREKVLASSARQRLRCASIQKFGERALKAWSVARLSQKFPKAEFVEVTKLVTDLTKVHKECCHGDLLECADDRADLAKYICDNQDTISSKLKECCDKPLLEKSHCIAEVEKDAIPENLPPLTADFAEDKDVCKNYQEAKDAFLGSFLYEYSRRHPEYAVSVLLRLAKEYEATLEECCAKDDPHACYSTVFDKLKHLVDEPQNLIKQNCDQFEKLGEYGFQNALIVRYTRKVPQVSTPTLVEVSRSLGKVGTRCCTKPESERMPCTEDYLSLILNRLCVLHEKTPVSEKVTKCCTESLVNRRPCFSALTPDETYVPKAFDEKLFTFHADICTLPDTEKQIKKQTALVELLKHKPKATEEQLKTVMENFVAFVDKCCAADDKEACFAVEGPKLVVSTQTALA"}, "[2]": {"biological_target": "Bovine serum albumin, P02769", "sequence (P02769 25-607)": "as above"}}, "data": [{"protein": "B1", "values": [{"measurement": "TG2-mediated incorporation of biotin-cadaverine into plate-coupled peptide (A450)", "setting": "CF13Q4", "result": "none of the other peptides react with the enzyme and cannot be used as substrate for TG2"}, {"measurement": "TG2-mediated incorporation of biotin-cadaverine into plate-coupled peptide (A450)", "setting": "CS9Q4", "result": "none of the other peptides react with the enzyme and cannot be used as substrate for TG2"}, {"measurement": "TG2-mediated incorporation of biotin-cadaverine into plate-coupled peptide (A450)", "setting": "CW8Q3", "result": "none of the other peptides react with the enzyme and cannot be used as substrate for TG2"}, {"measurement": "TG2-mediated incorporation of biotin-cadaverine into plate-coupled peptide (A450)", "setting": "DH6N5", "result": "none of the other peptides react with the enzyme and cannot be used as substrate for TG2"}, {"measurement": "TG2-mediated incorporation of biotin-cadaverine into plate-coupled peptide (A450)", "setting": "DH6Q5", "result": "none of the other peptides react with the enzyme and cannot be used as substrate for TG2"}, {"measurement": "TG2-mediated incorporation of biotin-cadaverine into plate-coupled peptide (A450)", "setting": "FE5Q4", "result": "none of the other peptides react with the enzyme and cannot be used as substrate for TG2"}, {"measurement": "TG2-mediated incorporation of biotin-cadaverine into plate-coupled peptide (A450)", "setting": "FY12Q10", "result": "none of the other peptides react with the enzyme and cannot be used as substrate for TG2"}, {"measurement": "TG2-mediated incorporation of biotin-cadaverine into plate-coupled peptide (A450)", "setting": "GS12Q7", "result": "none of the other peptides react with the enzyme and cannot be used as substrate for TG2"}, {"measurement": "TG2-mediated incorporation of biotin-cadaverine into plate-coupled peptide (A450)", "setting": "HG14Q11", "result": "none of the other peptides react with the enzyme and cannot be used as substrate for TG2"}, {"measurement": "TG2-mediated incorporation of biotin-cadaverine into plate-coupled peptide (A450)", "setting": "HH12N11", "result": "none of the other peptides react with the enzyme and cannot be used as substrate for TG2"}, {"measurement": "TG2-mediated incorporation of biotin-cadaverine into plate-coupled peptide (A450)", "setting": "HH12Q11", "result": "HH12Q11 show less reactivity with TG2 than mTG"}, {"measurement": "TG2-mediated incorporation of biotin-cadaverine into plate-coupled peptide (A450)", "setting": "SY10Q8", "result": "none of the other peptides react with the enzyme and cannot be used as substrate for TG2"}, {"measurement": "TG2-mediated incorporation of biotin-cadaverine into plate-coupled peptide (A450)", "setting": "TGpan", "result": "TGpan is good substrate for TG2 confirming its specificity to this enzyme"}, {"measurement": "TG2-mediated incorporation of biotin-cadaverine into plate-coupled peptide (A450)", "setting": "WG10Q7", "result": "none of the other peptides react with the enzyme and cannot be used as substrate for TG2"}, {"measurement": "TG2-mediated incorporation of biotin-cadaverine into plate-coupled peptide (A450)", "setting": "YV10", "result": "none of the other peptides react with the enzyme and cannot be used as substrate for TG2"}]}, {"protein": "B2", "values": [{"measurement": "mTG incorporation of biot-cad into coated conjugate (A450)", "setting": "[1]", "result": "a good incorporation of biot-cad was obtained with BSA-HH12Q11 conjugate"}, {"measurement": "mTG incorporation of biot-cad into coated protein (A450)", "setting": "[2]", "result": "no reactivity with free BSA"}, {"measurement": "mTG-mediated incorporation of biotin-X-cadaverine into plate-coupled peptide (A450)", "setting": "CF13Q4", "result": "The other peptides listed in table 1 didn't show any reactivity with mTG"}, {"measurement": "mTG-mediated incorporation of biotin-X-cadaverine into plate-coupled peptide (A450)", "setting": "CS9Q4", "result": "The other peptides listed in table 1 didn't show any reactivity with mTG"}, {"measurement": "mTG-mediated incorporation of biotin-X-cadaverine into plate-coupled peptide (A450)", "setting": "CW8Q3", "result": "The other peptides listed in table 1 didn't show any reactivity with mTG"}, {"measurement": "mTG-mediated incorporation of biotin-X-cadaverine into plate-coupled peptide (A450)", "setting": "DH6N5", "result": "The other peptides listed in table 1 didn't show any reactivity with mTG"}, {"measurement": "mTG-mediated incorporation of biotin-X-cadaverine into plate-coupled peptide (A450)", "setting": "DH6Q5", "result": "Peptides FE5Q4, HH12Q11 and DH6Q7 were found to be good substrate for mTG"}, {"measurement": "mTG-mediated incorporation of biotin-X-cadaverine into plate-coupled peptide (A450)", "setting": "FE5Q4", "result": "found to be good substrate for mTG with better reactivity of the peptides FE5Q4 and HH12Q11"}, {"measurement": "mTG-mediated incorporation of biotin-X-cadaverine into plate-coupled peptide (A450)", "setting": "FY12Q10", "result": "The other peptides listed in table 1 didn't show any reactivity with mTG"}, {"measurement": "mTG-mediated incorporation of biotin-X-cadaverine into plate-coupled peptide (A450)", "setting": "GS12Q7", "result": "showed low reactivity to mTG in comparison with the other peptides"}, {"measurement": "mTG-mediated incorporation of biotin-X-cadaverine into plate-coupled peptide (A450)", "setting": "HH12N11", "result": "no reactivity of the mTG was observed"}, {"measurement": "mTG-mediated incorporation of biotin-X-cadaverine into plate-coupled peptide (A450)", "setting": "HH12Q11", "result": "found to be good substrate for mTG with better reactivity of the peptides FE5Q4 and HH12Q11"}, {"measurement": "mTG-mediated incorporation of biotin-X-cadaverine into plate-coupled peptide (A450)", "setting": "SY10Q8", "result": "The other peptides listed in table 1 didn't show any reactivity with mTG"}, {"measurement": "mTG-mediated incorporation of biotin-X-cadaverine into plate-coupled peptide (A450)", "setting": "TGpan", "result": "showed low reactivity to mTG in comparison with the other peptides"}]}]}
